The target in this assay is T1, full-length MBP-HS1BP3 (UniProt Q53T59 1-392).
T1 construct: HS1BP3, full length; also called HS1BP3 FL; MBP HS1BP3 full-length WT; source: SoluBL21 E. coli, purified (amylose resin, eluted with 10 mM maltose)
T1 sequence (looked up): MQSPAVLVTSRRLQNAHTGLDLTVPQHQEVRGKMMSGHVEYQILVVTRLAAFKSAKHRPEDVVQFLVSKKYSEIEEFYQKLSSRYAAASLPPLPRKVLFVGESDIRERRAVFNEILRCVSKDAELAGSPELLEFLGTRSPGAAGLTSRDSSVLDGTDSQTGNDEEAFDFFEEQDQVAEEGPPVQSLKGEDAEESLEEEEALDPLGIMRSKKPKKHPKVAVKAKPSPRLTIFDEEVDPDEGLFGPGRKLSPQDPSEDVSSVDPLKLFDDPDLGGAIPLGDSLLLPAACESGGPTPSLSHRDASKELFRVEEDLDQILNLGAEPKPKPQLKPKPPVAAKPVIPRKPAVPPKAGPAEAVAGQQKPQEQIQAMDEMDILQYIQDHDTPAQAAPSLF
Kind of assay: pull-down; equal concentrations of GST-SH3 (on glutathione beads) and purified MBP-tagged HS1BP3 proteins incubated 2 h at 4 °C, six washes with GST-buffer, anti-MBP immunoblot. Particulars: both partners purified. On the technique in general: Immunoblotting shows a protein as a band on a membrane.

B1: GST-SH3 (SH3 domain of cortactin fused to GST) (domain or fragment)
chain: not shown
notes: SH3 domain of cortactin (CTTN); Q14247 amino acids 492-550 are printed only for the SH3 fragment used in the AlphaFold model; Held on glutathione beads as bait; also called GST-SH3 (cortactin); source: SoluBL21 E. coli, purified on Glutathione Sepharose 4B beads
Turning to B1, the binding result is given as “binds”.
